Data: patent publication US20240092841A1

Columns and labels:
Experiment in all cases: co-IP with agarose-bound AvFc from A549 whole-cell lysate, mass spectrometry
[1] = biological target: Transferrin receptor protein 1 (human) (UniProt P02786)
[2] = biological target: Transmembrane and TPR repeat-containing protein 3 (human) (UniProt Q6ZXV5)
Integrin alpha-3 (human) = Integrin alpha-3 (human) (UniProt P26006)
[3] = biological target: Prolow-density lipoprotein receptor-related protein 1 (human) (UniProt Q07954)
Serpin H1 (human) = Serpin H1 (human) (UniProt P50454)
Integrin alpha-2 (human) = Integrin alpha-2 (human) (UniProt P17301)
Attractin (human) = Attractin (human) (UniProt O75882)
[4] = biological target: Spectrin beta chain, non-erythrocytic 1 (human) (UniProt Q01082)
[5] = biological target: Protocadherin Fat 1 (human) (UniProt Q14517)
Agrin (human) = Agrin (human) (UniProt O00468)
Exportin-1 (human) = Exportin-1 (human) (UniProt O14980)
[6] = biological target: Laminin subunit gamma-1 (human) (UniProt P11047)
[7] = biological target: Tropomyosin alpha-3 chain (human) (UniProt P06753)
[8] = biological target: Tetratricopeptide repeat protein 17 (human) (UniProt Q96AE7)
Erlin-1 (human) = Erlin-1 (human) (UniProt O75477)
Plexin-B2 (human) = Plexin-B2 (human) (UniProt O15031)
[9] = biological target: Sodium/potassium-transporting ATPase subunit beta-1 (human) (UniProt P05026)
[10] = biological target: Adhesion G protein-coupled receptor L2 (human) (UniProt O95490)
[11] = biological target: Metal transporter CNNM4 (human) (UniProt Q6P4Q7)
Integrin alpha-1 (human) = Integrin alpha-1 (human) (UniProt P56199)
Chain of UniProt P56199 (P56199 29-1179 limits assumed): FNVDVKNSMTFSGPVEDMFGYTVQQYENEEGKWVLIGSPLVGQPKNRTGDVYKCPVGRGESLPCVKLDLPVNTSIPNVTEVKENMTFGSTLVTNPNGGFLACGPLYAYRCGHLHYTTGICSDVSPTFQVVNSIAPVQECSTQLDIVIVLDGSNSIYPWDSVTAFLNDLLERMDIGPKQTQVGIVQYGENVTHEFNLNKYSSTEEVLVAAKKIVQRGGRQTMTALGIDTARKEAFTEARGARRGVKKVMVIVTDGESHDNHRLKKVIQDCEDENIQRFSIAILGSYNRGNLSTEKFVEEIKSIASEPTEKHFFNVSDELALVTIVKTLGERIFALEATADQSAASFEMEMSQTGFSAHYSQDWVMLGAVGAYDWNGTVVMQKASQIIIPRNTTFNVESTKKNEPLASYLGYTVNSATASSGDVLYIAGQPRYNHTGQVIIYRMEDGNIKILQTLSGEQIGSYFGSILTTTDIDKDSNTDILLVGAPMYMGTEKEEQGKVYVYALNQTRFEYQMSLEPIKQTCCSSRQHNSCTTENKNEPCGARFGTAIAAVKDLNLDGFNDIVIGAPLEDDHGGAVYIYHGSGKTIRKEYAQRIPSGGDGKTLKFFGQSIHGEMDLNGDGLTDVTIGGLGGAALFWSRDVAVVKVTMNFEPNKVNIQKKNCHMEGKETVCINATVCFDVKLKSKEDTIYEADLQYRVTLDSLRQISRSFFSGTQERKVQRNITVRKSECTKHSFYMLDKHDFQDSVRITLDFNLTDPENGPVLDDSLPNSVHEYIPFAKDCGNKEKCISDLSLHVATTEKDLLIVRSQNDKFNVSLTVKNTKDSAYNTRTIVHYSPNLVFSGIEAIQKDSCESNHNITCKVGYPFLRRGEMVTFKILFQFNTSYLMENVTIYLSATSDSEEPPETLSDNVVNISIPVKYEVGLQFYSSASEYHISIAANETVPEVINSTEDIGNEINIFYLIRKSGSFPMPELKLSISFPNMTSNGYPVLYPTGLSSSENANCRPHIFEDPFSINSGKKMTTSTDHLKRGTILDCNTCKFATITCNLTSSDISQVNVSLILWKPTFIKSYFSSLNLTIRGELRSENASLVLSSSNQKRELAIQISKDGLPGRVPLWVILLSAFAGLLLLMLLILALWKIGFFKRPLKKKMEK

[12] = biological target: Disintegrin and metalloproteinase domain-containing protein 9 (human) (UniProt Q13443)
[13] = biological target: Multidrug resistance-associated protein 1 (human) (UniProt P33527)
Integrin alpha-V (human) = Integrin alpha-V (human) (UniProt P06756)
[14] = biological target: Solute carrier family 12 member 7 (human) (UniProt Q9Y666)
CD109 antigen (human) = CD109 antigen (human) (UniProt Q6YHK3)
[15] = biological target: Neutral amino acid transporter B (0) (human) (UniProt Q15758)
[16] = biological target: Transmembrane protein 106B (human) (UniProt Q9NUM4)
Chain of UniProt Q9NUM4 (Q9NUM4 2-274 limits assumed): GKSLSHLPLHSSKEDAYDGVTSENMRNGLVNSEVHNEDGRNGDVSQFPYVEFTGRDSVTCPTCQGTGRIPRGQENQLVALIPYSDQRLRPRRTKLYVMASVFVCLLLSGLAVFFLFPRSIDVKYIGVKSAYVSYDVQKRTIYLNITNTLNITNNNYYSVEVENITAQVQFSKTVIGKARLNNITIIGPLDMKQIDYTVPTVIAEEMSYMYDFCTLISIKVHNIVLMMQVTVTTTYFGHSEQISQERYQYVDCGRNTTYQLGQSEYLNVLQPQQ

[17] = biological target: Endothelial protein C receptor (human) (UniProt Q9UNN8)
Chain of UniProt Q9UNN8 (Q9UNN8 18-238 limits assumed): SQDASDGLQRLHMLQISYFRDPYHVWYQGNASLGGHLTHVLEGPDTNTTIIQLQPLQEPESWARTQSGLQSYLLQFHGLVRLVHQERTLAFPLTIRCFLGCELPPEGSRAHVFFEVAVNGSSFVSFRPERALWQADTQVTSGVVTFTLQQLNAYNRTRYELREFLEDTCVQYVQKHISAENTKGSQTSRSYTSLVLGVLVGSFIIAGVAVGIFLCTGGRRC

[18] = biological target: Solute carrier family 2, facilitated glucose transporter member 1 (human) (UniProt P11166)
[19] = biological target: Transmembrane protein 2 (human) (UniProt Q9UHN6)
[20] = biological target: Scavenger receptor class B member 1 (human) (UniProt Q8WTV0)
[21] = biological target: Contactin-associated protein-like 3 (human) (UniProt Q9BZ76)
[22] = biological target: Laminin subunit alpha-5 (human) (UniProt O15230)
[23] = biological target: Magnesium transporter protein 1 (human) (UniProt Q9H0U3)
Chain of UniProt Q9H0U3 (Q9H0U3 30-335 limits assumed): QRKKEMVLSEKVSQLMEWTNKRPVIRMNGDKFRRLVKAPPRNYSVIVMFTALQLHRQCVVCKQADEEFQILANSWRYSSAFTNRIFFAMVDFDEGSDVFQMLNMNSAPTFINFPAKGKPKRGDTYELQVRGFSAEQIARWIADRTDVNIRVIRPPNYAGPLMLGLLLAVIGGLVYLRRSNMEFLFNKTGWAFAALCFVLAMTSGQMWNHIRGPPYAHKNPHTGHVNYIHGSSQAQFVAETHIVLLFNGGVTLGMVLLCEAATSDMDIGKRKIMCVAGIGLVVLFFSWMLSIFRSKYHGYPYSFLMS

[24] = biological target: Isoform 6 of Myoferlin (human) (UniProt Q9NZM1)
[25] = biological target: Sortilin-related receptor (human) (UniProt Q92673)
Chain of UniProt Q92673 (Q92673 82-2214 limits assumed): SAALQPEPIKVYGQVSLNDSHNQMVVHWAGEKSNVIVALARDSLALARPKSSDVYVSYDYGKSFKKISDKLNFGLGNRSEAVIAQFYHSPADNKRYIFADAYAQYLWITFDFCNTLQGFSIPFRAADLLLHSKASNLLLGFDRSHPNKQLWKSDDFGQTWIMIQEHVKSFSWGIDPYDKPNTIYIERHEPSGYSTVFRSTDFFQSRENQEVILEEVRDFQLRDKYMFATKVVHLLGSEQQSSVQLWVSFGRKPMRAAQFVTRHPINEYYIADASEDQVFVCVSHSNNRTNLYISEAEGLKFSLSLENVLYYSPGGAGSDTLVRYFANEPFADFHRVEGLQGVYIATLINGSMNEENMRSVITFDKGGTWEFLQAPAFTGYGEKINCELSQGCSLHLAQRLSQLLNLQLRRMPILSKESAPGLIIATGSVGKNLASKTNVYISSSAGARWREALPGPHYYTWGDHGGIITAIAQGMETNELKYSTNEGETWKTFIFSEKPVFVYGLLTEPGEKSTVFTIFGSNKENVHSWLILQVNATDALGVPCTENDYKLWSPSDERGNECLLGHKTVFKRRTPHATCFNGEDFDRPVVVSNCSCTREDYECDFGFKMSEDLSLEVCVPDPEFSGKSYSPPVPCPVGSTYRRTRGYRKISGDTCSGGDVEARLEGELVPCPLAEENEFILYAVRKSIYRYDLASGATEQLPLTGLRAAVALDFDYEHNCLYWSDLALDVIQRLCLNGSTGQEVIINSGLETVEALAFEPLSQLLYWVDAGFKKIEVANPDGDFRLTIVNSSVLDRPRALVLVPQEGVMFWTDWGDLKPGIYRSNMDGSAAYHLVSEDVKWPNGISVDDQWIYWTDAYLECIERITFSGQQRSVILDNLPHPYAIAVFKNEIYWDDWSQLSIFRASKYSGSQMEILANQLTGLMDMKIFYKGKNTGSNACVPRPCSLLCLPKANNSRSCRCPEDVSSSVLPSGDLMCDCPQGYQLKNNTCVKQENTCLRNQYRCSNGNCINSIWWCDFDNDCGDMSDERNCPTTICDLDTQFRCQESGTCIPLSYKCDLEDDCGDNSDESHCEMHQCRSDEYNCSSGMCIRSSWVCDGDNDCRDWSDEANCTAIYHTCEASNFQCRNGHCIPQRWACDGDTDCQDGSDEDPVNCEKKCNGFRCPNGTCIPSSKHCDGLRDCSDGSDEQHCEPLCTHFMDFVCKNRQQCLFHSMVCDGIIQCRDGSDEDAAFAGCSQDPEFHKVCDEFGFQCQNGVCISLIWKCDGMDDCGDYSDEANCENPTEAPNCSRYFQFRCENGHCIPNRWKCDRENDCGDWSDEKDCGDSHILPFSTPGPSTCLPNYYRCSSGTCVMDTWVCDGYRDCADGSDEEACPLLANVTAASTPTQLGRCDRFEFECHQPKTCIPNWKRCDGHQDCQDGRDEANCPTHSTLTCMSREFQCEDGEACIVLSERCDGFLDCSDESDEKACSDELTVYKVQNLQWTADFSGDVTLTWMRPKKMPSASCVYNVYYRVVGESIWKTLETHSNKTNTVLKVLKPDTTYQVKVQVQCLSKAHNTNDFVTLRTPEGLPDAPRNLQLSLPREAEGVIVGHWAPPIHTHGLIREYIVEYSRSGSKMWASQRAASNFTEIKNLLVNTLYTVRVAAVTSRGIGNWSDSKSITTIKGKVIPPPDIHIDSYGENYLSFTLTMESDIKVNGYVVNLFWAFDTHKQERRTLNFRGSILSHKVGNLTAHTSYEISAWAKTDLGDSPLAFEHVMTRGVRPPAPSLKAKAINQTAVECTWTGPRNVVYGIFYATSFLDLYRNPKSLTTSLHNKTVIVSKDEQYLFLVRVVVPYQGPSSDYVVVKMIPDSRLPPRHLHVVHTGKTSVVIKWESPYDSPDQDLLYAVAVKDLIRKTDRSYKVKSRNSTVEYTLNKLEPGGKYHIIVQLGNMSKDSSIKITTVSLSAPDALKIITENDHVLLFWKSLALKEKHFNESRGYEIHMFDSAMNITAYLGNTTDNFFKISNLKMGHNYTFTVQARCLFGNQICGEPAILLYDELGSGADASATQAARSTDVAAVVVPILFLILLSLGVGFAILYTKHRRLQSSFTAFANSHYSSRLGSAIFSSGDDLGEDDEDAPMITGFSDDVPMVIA

[26] = biological target: Cation-independent mannose-6-phosphate receptor (human) (UniProt P11717)
Mucin-5B (human) = Mucin-5B (human) (UniProt Q9HC84)
[27] = biological target: Galectin-3-binding protein (human) (UniProt Q08380)

Chain of UniProt Q6ZXV5 (Q6ZXV5 other isoform, or with tags, fused parts or gaps limits assumed): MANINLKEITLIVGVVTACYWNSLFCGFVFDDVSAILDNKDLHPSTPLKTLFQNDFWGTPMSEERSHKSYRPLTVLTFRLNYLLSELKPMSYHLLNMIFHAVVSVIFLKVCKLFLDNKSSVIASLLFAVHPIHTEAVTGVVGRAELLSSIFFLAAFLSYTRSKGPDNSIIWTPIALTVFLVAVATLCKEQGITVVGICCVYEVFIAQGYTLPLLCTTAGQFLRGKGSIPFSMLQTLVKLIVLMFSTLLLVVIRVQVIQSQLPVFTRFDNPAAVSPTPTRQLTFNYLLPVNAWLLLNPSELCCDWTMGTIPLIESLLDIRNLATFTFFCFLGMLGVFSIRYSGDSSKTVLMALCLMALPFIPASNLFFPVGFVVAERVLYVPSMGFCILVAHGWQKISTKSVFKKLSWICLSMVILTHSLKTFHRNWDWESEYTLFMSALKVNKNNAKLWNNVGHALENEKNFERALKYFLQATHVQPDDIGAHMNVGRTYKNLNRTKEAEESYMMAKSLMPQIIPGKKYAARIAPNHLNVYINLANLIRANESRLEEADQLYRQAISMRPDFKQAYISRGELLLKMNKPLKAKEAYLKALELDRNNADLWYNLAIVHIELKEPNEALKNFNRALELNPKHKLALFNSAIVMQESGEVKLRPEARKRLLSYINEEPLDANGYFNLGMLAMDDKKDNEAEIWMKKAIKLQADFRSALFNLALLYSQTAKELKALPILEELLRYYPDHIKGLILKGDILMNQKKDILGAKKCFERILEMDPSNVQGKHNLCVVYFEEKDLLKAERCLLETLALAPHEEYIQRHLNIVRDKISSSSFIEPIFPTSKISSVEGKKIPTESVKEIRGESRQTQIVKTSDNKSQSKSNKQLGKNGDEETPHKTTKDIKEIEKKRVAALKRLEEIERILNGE

Substance: Avaren-Fc (AvFc) (Fc fusion)
- Percentage of Total Spectra (%) [1]: 0.16%
- Percentage of Total Spectra (%) [2]: 0.11%
- Percentage of Total Spectra (%) (Integrin alpha-3 (human)): 0.15%
- Percentage of Total Spectra (%) [3]: 0.056%
- Percentage of Total Spectra (%) (Serpin H1 (human)): 0.063%
- Percentage of Total Spectra (%) (Integrin alpha-2 (human)): 0.11%
- Percentage of Total Spectra (%) (Attractin (human)): 0.084%
- Percentage of Total Spectra (%) [4]: 0.11%
- Percentage of Total Spectra (%) [5]: 0.12%
- Percentage of Total Spectra (%) (Agrin (human)): 0.21%
- Percentage of Total Spectra (%) (Exportin-1 (human)): 0.056%
- Percentage of Total Spectra (%) [6]: 0.36%
- Percentage of Total Spectra (%) [7]: 0.07%
- Percentage of Total Spectra (%) [8]: 0.13%
- Percentage of Total Spectra (%) (Erlin-1 (human)): 0.11%
- Percentage of Total Spectra (%) (Plexin-B2 (human)): 0.12%
- Percentage of Total Spectra (%) [9]: 0.056%
- Percentage of Total Spectra (%) [10]: 0.091%
- Percentage of Total Spectra (%) [11]: 0.091%
- Percentage of Total Spectra (%) (Integrin alpha-1 (human)): 0.021%
- Percentage of Total Spectra (%) [12]: 0.11%
- Percentage of Total Spectra (%) [13]: 0.07%
- Percentage of Total Spectra (%) (Integrin alpha-V (human)): 0.15%
- Percentage of Total Spectra (%) [14]: 0.021%
- Percentage of Total Spectra (%) (CD109 antigen (human)): 0.13%
- Percentage of Total Spectra (%) [15]: 0.014%
- Percentage of Total Spectra (%) [16]: 0.098%
- Percentage of Total Spectra (%) [17]: 0.014%
- Percentage of Total Spectra (%) [18]: 0.007%
- Percentage of Total Spectra (%) [19]: 0.11%
- Percentage of Total Spectra (%) [20]: 0.056%
- Percentage of Total Spectra (%) [21]: 0.11%
- Percentage of Total Spectra (%) [22]: 0.34%
- Percentage of Total Spectra (%) [23]: 0.021%
- Percentage of Total Spectra (%) [24]: 0.17%
- Percentage of Total Spectra (%) [25]: 0.12%
- Percentage of Total Spectra (%) [26]: 0.2%
- Percentage of Total Spectra (%) (Mucin-5B (human)): 0.14%
- Percentage of Total Spectra (%) [27]: 0.07%
